In patent US9073982B2, “Targets for regulation of angiogenesis” (The University of North Carolina at Chapel Hill, priority 2008, dated 2015):
Entries after “also recorded” stand apart in the source; their conditions may differ.

Columns and labels:
C57BL/6 mice = test: Mouse MATRIGEL plug angiogenesis assay; format: in vivo
Description: The ability of mouse recombinant SFRP2 would stimulate angiogenesis in a mouse MATRIGEL plug angiogenesis assay was evaluated. Female C57BL/6 mice (8 weeks old) were injected s.c. with 0.5 ml of growth factor reduced basement membrane matrix (MATRIGEL) containing either mouse recombinant SFRP2 (800 ng/ml) with 30 U/ml heparin or PBS with 30 U/ml heparin for negative control. Seven days later the mice were sacrificed and the MATRIGEL plugs removed and evaluated for angiogenesis by hemoglobin concentration with the Drabkin's reagent.

[1] = tested on: Human coronary artery endothelial cells (HCAEC); test: Hypoxia-induced endothelial cell apoptosis assay (caspase 3); format: cell-based; conditions: SFRP2 70 pM and 700 pM, 36 h hypoxia
Description: Human coronary artery endothelial cells (HCAEC) were used for apoptosis assays because apoptosis could not be induced in the MEC cells. HCAECs were grown in 10-cm dishes (Becton Dickinson, Franklin Lakes, N.J.) with endothelial cell basal medium-2 (EGM-2) BulletKit media (Clonetics, San Diego, Calif.) until 80% confluent. Medium was then replaced with optimal medium according to different assays. The hypoxic condition was created by incubating HCAECs in EGM-2 media without BulletKit growth factors at 37° C. in a hypoxia chamber with an atmosphere of 5% CO2/95% N2. The oxygen level in the chamber was controlled to 1.0%. Apoptosis was determined by measuring the activity of cleaved caspase 3 by using a caspase-specific fluorogenic substrate according to the protocol for the Caspase 3 Assay Kit (Sigma). HCAECs were lysed after treatment with concentrations of SFRP2 (70 pM and 700 pM) for 36 h under hypoxia. […] The enzyme-catalyzed release of 7-amino-4-methyl coumarin (AMC) was measured by a fluorescence microplate reader.
HCAEC were seeded onto a 96 well plate at 2,000 cells/well in EGM-2 with BulletKit growth supplements. […] Apoptosis was determined by measuring the activity of cleaved caspase 3 by using a caspase-specific fluorogenic substrate according to the protocol for the Apo-ONE® Homogeneous Caspase-3/7 Assay (Promega, Madison, Wis.). […]

β-catenin = test: Western blot for nuclear and cytoplasmic β-catenin in endothelial cells; format: cell-based, mouse; conditions: SFRP2 700 pM
Description: SFRP2 has been described as both a Wnt antagonist and agonist, but its effects on Wnt signaling in endothelial cells have not been elucidated. To determine if SFRP2 mediates canonical Wnt signaling in endothelial cells, cytoplasmic and nuclear β-catenin levels were measured in SFRP2-treated endothelial cells. Mouse endothelial cells were plated in 12-well plates and allowed to attach overnight. The next day, the media was changed and added to the wells with and without SFRP2 (700 pM). Cells were incubated for 16 hours, and the nuclear and cytoplasmic proteins were extracted by using NE-PER™ nuclear and cytoplasmic extraction reagent from PIERCE (Pierce Biotechnology) as described in the manufacturer's manual. Western blot analysis was performed using standard methods, with primary antibody to the dephosphorylated (active) β-catenin antibody (Santa Cruz, Clone BDI480, catalog # sc-59893).
To evaluate the role of the non-canonical Wnt/Ca^++ pathway in SFRP2 induced angiogenesis, nuclear dephosphorylated NFATc3 protein levels were compared in control and SFRP2-treated endothelial cells. MEC cells were plated in 12-well plates and allowed to attach overnight. The next day, the media was changed and added to the wells with and without SFRP2 (700 pM). […]

[2] = tested on: mouse endothelial cells (MEC); test: Endothelial cell tube formation assay, MEC cells; format: cell-based; conditions: SFRP2 concentration range, 8 hours
Description: The tube formation properties of SFRP2 on mouse endothelial cells (MEC) cells were evaluated using an endothelial cell tube formation assay. ECMATRIX (Chemicon) was thawed, diluted and solidified in a 96 well plate according to the manufacturer's instructions. 1×10^4 cells/well in 150 μl of DMEM (celigro) with 10% FBS (HyClone) and a concentration range (7-7000 pM) of SFRP2 (US Biologicals) were seeded onto the matrix and returned to 37° C., 5% CO2 for 8 hours. Images were acquired using the Nikon Eclipse TS100 microscope at 4× magnification with a Nikon CoolPix 995 digital camera. Results were quantified by counting the number of branch points.
To evaluate whether tacrolimus inhibits SFRP2 induced tube formation, MEC cells were treated as above with SFRP2 7 nM with and without tacrolimus 100 uM for 8 hours and branch points were determined as described above. To evaluate whether tacrolimus reversed established tubes, cells were incubated with SFRP2 7 nM for 8 hours and then BSA or tacrolimus 100 μM was added to SFRP2 treated cells for an additional 4 hours, and then the number of branch points were counted. […] Tacrolimus was not cytotoxic to MEC cells, as only 5% of tacrolimus-treated cells took up trypan blue dye (data not shown).
The tube formation properties of SFRP2 on MEC cells were evaluated using an endothelial cell tube formation assay. ECMATRIX (Chemicon) was thawed, diluted and solidified in a 96 well plate according to the manufactures instructions. 1×10^4 cells/well in 150 μl of DMEM (cellgro) with 10% FBS (HyClone) and a concentration range (3-3000 pM) of SFRP2 (US Biologicals) were seeded onto the matrix and returned to 37° C., 5% CO2 for 8 hours. Images were acquired using the Nikon Eclipse TS100 microscope at 4× magnification with a Nikon CoolPix 995 digital camera. Results were quantified by counting the number of branch point. To evaluate whether tacrolimus inhibits SFRP2 induced tube formation, MEC cells were treated as above with SFRP2 30 nM with and without tacrolimus (1 μM-100 uM) for 8 hours and branch points were determined as described above. To evaluate whether inhibitors of SFRP2-mediated angiogenesis would inhibit the growth of SVR tumor cells, SVR cells were treated with tacrolimus (1 μM-100 μM) or with a rabbit polyclonal antibody to SFRP-2 (H-140) (Santa Cruz Biotechnology, Santa Cruz, Calif., catalogue 4 sc-13940) in the tube formation assay.

B1: SFRP2: mouse recombinant SFRP2 (US Biologicals), secreted frizzled-related protein 2 (protein)
chain: LFLFGQPDFSYKRSNCKPIPANLQLCHGIEYQNMRLPNLLGHETMKEVLEQAGAWIPLVMKQCHPDTKKFLCSLFAPVCLDDLDETIQPCHSLCVQVKDRCAPVMSAFGFPWPDMLECDRFPQDNDLCIPLASSDHLLPATEEAPKVCEACKTKNEDDNDIMETLCKNDFALKIKVKEITYINRDTKIILETKSKTIYKLNGVSERDLKKSVLWLKDSLQCTCEEMNDINAPYLVMGQKQGGELVITSVKRWQKGQREFKRISRSIRKLQC
- hemoglobin content of plugs, increase compared with the vehicle control (C57BL/6 mice; SFRP2 800 ng/ml with heparin, s.c., seven days): 3.3 fold
- angiogenesis in the mouse MATRIGEL plug assay (C57BL/6 mice; mouse, in vivo): induces angiogenesis
- hypoxia induced endothelial cell apoptosis (cleaved caspase 3 activity) [1]: protected against hypoxia induced endothelial cell apoptosis; also recorded: inhibits hypoxia-induced apoptosis
- nuclear (and cytoplasmic) β-catenin level (β-catenin): no change in nuclear β-catenin; also recorded: no change in cytoplasmic or nuclear β-catenin levels
- endothelial tube formation (branch points) [2]: induced by SFRP2 in a concentration-dependent manner; also recorded: induces endothelial tube formation at 8 hours in a concentration-dependent manner
